Assay [1] has as its target T1, Fc-tagged human FGFR4 ectodomain (human, UniProt P22455 22-369).
T1 construct: extracellular domain; Bought; also called Fc-FGFR4; not shown: Fc tag
T1 sequence (looked up): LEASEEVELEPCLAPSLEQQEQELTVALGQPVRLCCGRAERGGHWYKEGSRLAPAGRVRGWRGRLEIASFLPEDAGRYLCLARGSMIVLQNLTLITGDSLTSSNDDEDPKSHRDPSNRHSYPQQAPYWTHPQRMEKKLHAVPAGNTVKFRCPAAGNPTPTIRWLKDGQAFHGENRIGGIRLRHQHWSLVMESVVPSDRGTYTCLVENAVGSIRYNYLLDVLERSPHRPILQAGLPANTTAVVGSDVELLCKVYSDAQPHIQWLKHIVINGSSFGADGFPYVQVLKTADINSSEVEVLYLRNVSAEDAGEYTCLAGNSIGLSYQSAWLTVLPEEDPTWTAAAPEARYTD
Put plainly: pull-down: Fc-FGFR on protein A/G beads, then FGF21 with PBS, FLAG-sKL or heparin; Western blot with anti-FGF21. As to the method: To study the interaction between Fc-tagged FGFR isoforms (Fc-FGFR), FGF isoforms, and sKL, immunoprecipitation studies were conducted. Protein A beads (6501, BioVision) and protein G beads (6511, BioVision) were used at 25 μl of a 50% stock slurry per sample in a total bead volume of 50 μl. Beads were washed 5× in activity buffer (50 mM Tris [pH 7.4], 200 mM NaCl, 0.01% Tween 20). Bead spin-down assays were all performed for 2 minutes at 5000 g. Beads were resuspended in 1 ml of activity buffer in a 1.5-ml snap cap tube. One microgram of Fc-FGFR1 to 4 was incubated with the beads for 1 hour on a bead rotator. Control samples were incubated with 2 μg of anti-FGF antibody instead of Fc-FGFR. Beads were then pelleted at 5000 g for 2 minutes and washed 5× with activity buffer. Beads were resuspended and incubated with different combinations of 500 ng of FGF, 1 μg of sKL, 1.6 United States Pharmacopeia (USP) units of heparin, or phosphate-buffered saline (PBS). Beads were incubated for 1 hour on a tube rotator, and beads were pelleted and washed as before. One hundred microliters of 1× Laemmli sample buffer (1610737, Bio-Rad) with 1.42 M 2-mercaptoethanol was added, and samples were boiled for 5 minutes. Samples were analyzed using SDS-PAGE and Western blotting.

The target in assay [2] is T2, recombinant FGF23 protein (species not stated for the assay).
T2 construct: also called fibroblast growth factor 23
T2 sequence (Q9GZV9 25-251, species assumed, looked up): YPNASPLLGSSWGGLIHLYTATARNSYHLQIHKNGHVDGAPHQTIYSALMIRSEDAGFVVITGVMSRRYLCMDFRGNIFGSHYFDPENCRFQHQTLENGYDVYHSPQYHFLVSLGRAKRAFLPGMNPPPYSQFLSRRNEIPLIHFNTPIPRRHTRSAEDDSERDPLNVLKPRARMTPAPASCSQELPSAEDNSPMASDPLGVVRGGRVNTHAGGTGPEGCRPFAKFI
Put plainly: plate assay: 100 ng FGF23 coated, 400 ng purified FLAG-tagged sKL-N694Q or wildtype, anti-FLAG-HRP (FIG. 25E). As to the method: Plates were coated with 100 ng of FGF23 or 200 ng of FGFR1c and incubated with 400 ng of purified FLAG-tagged wildtype sKL or sKL-N694Q.

B1: human FGF21 (ligand, UniProt Q9NSA1 29-209, looked up)
chain: HPIPDSSPLLQFGGQVRQRYLYTDDAQQTEAHLEIREDGTVGGAADQSPESLLQLKALKPGVIQILGVKTSRFLCQRPDGALYGSLHFDPEACSFRELLLEDGYNVYQSEAHGLPLHLPGNKSPHRDPAPRGPARFLPLPGLPPALPEPPGILAPQPPDVGSSDPLSMVGPSQGRSPSYAS
Consider B1, for which, in assay [1], the binding result was “no binding (tested: 500 ng FGF21 (Methods paragraph 182))”.

B2: FLAG-tagged sKL-N694Q (receptor)
chain: EPGDGAQTWARFSRPPAPEAAGLFQGTFPDGFLWAVGSAAYQTEGGWQQHGKGASIWDTFTHHPLAPPGDSRNASLPLGAPSPLQPATGDVASDSYNNVFRDTEALRELGVTHYRFSISWARVLPNGSAGVPNREGLRYYRRLLERLRELGVQPVVTLYHWDLPQRLQDAYGGWANRALADHFRDYAELCFRHFGGQVKYWITIDNPYVVAWHGYATGRLAPGIRGSPRLGYLVAHNLLLAHAKVWHLYNTSFRPTQGGQVSIALSSHWINPRRMTDHSIKECQKSLDFVLGWFAKPVFIDGDYPESMKNNLSSILPDFTESEKKFIKGTADFFALCFGPTLSFQLLDPHMKFRQLESPNLRQLLSWIDLEFNHPQIFIVENGWFVSGTTKRDDAKYMYYLKKFIMETLKAIKLDGVDVIGYTAWSLMDGFEWHRGYSIRRGLFYVDFLSQDKMLLPKSSALFYQKLIEKNGFPPLPENQPLEGTFPCDFAWGVVDNYIQVDTTLSQFTDLNVYLWDVHHSKRLIKVDGVVTKKRKSYCVDFAAIQPQIALLQEMHVTHFRFSLDWALILPLGNQSQVNHTILQYYRCMASELVRVNITPVVALWQPMAPNQGLPRLLARQGAWENPYTALAFAEYARLCFQELGHHVKLWITMNEPYTRQMTYSAGHNLLKAHALAWHVYNEKFRHAQNGKISIALQADWIEPACPFSQKDKEVAERVLEFDIGWLAEPIFGSGDYPWVMRDWLNQRNNFLLPYFTEDEKKLIQGTFDFLALSHYTTILVDSEKEDPIKYNDYLEVQEMTDITWLNSPSQVAVVPWGLRKVLNWLKFKYGDLPMYIISNGIDDGLHAEDDQLRVYYMQNYINEALKAHILDGINLCGYFAYSFNDRTAPRFGLYRYAADQFEPKASMKHYRKIIDSNGFPGPETLERFCPEEFTVCTECSFFHTRKS
notes: Human assignment as for m24; Tested in HEK293 media and as protein purified from supernatants; also called N6940 and sKL-N6940; not shown: C-terminal FLAG/His tag
Turning to B2, the “fold increase in FGF23 binding against the wildtype protein” value in assay [2] stood at 3 fold.

The record behind these values is patent US20240384250A1 (UAB RESEARCH FOUNDATION, published 2024).
